# Key:
# HLA-A*0201 [1] = target: T1, HLA-A*0201 (human); assay: iTopia affinity;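 further: peptide affinity for plate-bound HLA-A2 molecules (iTopia system), with ED50 derived from an eight-point serial peptide dilution series run under binding assay conditions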
# T1 construct: also called HLA-A2.1; HLA A2.1
# HLA-A*0201 [2] = target: T1, HLA-A*0201; assay: iTopia binding;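 further: each peptide tested for binding to HLA-A2 molecules immobilized on plates, using a commercial screening kit run per its supplied protocol and reagents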
# HLA-A*0201 [3] = target: T1, HLA-A*0201; assay: iTopia off-rate;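 further: Half-life of peptide complexes with plate-bound HLA-A2, peptides loaded 18 h at 21 C, washed, then held at 37 C over several time points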
# HLA-A*0201 [4] = target: T1, HLA-A*0201; assay: iTopia net score;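 further: combined score from peptide binding, ED₅₀ and half-life of peptide complexes with plate-bound HLA-A2 molecules, computed by a proprietary formula in iTopia software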
# HLA-A*2402 [5] = target: HLA-A*2402 (human); assay: iTopia net score;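 further: iScore from iTopia software combining peptide binding, affinity over a dilution series and off-rate after warming to body temperature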
# HLA-A*2402 [6] = target: HLA-A*2402 (human); assay: iTopia off-rate
# HLA-A*2402 [7] = target: HLA-A*2402 (human); assay: iTopia affinity;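 further: peptide binding to HLA-A*2402 measured in iTopia kit format across eight serial peptide dilutions, ED50 derived from the resulting titration curve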
ED50 (HLA-A*0201 [1]) [µM],binding vs positive control (HLA-A*0201 [2]) [%],t1/2 (HLA-A*0201 [3]),iScore (HLA-A*0201 [4]),iScore (HLA-A*2402 [5]),t1/2 (HLA-A*2402 [6]),ED50 (HLA-A*2402 [7]) [µM],Binder
6.3,> 30,1.27,0.166,–,–,–,TMEEEYGLV [cdr2 218-226 TMEEEYGLV]
2,> 30,6.5,0.528,–,–,–,VTMEEEYGL [cdr2 217-225 VTMEEEYGL]
17,> 30,1.38,0.15,–,–,–,EMFLTVPES [cdr2 293-301 EMFLTVPES]
–,–,–,–,0.081,1.32,43,SSLAGSDIV [cdr2 316-324 SSLAGSDIV]
1,> 30,7,0.752,–,–,–,RGISLLHEV [cdr2 341-349 RGISLLHEV]
10,> 30,5.5,0.282,–,–,–,FVYDHVFAE [cdr2 171-179 FVYDHVFAE]
0.95,> 30,0.51,0.187,–,–,–,LSLTETIEC [cdr2 113-121 LSLTETIEC]
9,> 30,6.3,0.262,–,–,–,DSLSHKAVQ [cdr2 372-380 DSLSHKAVQ]
30,> 30,5.44,0.178,–,–,–,QSLLEEMFL [cdr2 288-296 QSLLEEMFL]
10,> 30,2.4,0.154,–,–,–,LVPDSLYVP [cdr2 274-282 LVPDSLYVP]
6,> 30,1.3,0.166,–,–,–,NIDHLQSQV [cdr2 125-133 NIDHLQSQV]
–,–,–,–,0.505,1.63,0.44,EYKALFKEI [cdr2 421-429 EYKALFKEI]
10,> 30,7.7,0.323,–,–,–,HLQSQVEEL [cdr2 128-136 HLQSQVEEL]
–,–,–,–,0.092,1.02,8.8,VEKLVPDSL [cdr2 271-279 VEKLVPDSL]
4,> 30,0.8,0.129,–,–,–,SLSHKAVQT [cdr2 373-381 SLSHKAVQT]
–,–,–,–,0.444,1.72,0.65,EYLTKQVEL [cdr2 64-72 EYLTKQVEL]
–,–,–,–,0.097,0.21,3.1,QHFVYDHVF [cdr2 169-177 QHFVYDHVF]
1,> 30,0.5,0.187,–,–,–,ASGWELASV [cdr2 400-408 ASGWELASV]
7,> 30,10.5,0.512,0.261,0.82,1.5,KILSLTETI [cdr2 111-119 KILSLTETI]

# The next lines start with the binder.
Binder,ED50 (HLA-A*0201 [1]) [µM],binding vs positive control (HLA-A*0201 [2]) [%],t1/2 (HLA-A*0201 [3]),iScore (HLA-A*0201 [4]),iScore (HLA-A*2402 [5]),t1/2 (HLA-A*2402 [6]),ED50 (HLA-A*2402 [7]) [µM]
KVYEQLDVT [cdr2 82-90 KVYEQLDVT],8,> 30,1.3,0.139,–,–,–
LKSSGQGRR [cdr2 136-144 LKSSGQGRR],16,> 30,2.38,0.176,–,–,–
TILSSLAGS (Position printed as 313-221) [cdr2 313-221 TILSSLAGS],2,> 30,1.1,0.238,–,–,–
QYSALKVKY [cdr2 352-360 QYSALKVKY],–,–,–,–,0.098,0.35,3.1
YLTKQVELL [cdr2 65-73 YLTKQVELL],2,> 30,8.1,0.645,0.107,0.22,1.9
PFVNGVEKL [cdr2 266-274 PFVNGVEKL],–,–,–,–,0.218,0.49,1.4
TMLQAQLSL [cdr2 203-211 TMLQAQLSL],0.8,> 30,9.8,0.811,0.117,0.25,0.7
QLAAELGKT [cdr2 29-37 QLAAELGKT],20,> 30,1.4,0.15,–,–,–
EQLQEIEYL [cdr2 58-66 EQLQEIEYL],–,–,–,–,0.142,1.47,3.4
VKQRGISLL [cdr2 338-346 VKQRGISLL],–,–,–,–,0.172,1.15,10
GVNAQSEPV [cdr2 391-399 GVNAQSEPV],10,> 30,6.4,0.292,–,–,–
LFKEIFSCI [cdr2 425-433 LFKEIFSCI],–,–,–,–,0.529,1.11,0.075
MYTTNQEQL [cdr2 52-60 MYTTNQEQL],–,–,–,–,0.441,1.46,0.54
CLQTNIDHL [cdr2 121-129 CLQTNIDHL],20,> 30,2.4,0.176,–,–,–
LYDLRQHFV [cdr2 164-172 LYDLRQHFV],0.5,> 30,0.4,0.199,0.157,0.27,1.6
QAQLSLERQ [cdr2 206-214 QAQLSLERQ],8.1,> 30,3.42,0.174,–,–,–
SLLEEMFLT [cdr2 289-297 SLLEEMFLT],6,> 30,13.9,0.803,–,–,–
PFKEPSQSL [cdr2 282-290 PFKEPSQSL],–,–,–,–,0.496,1.25,0.49
VFAEKITSL [cdr2 176-184 VFAEKITSL],5,> 30,0.4,0.106,0.446,0.78,0.26
MLQAQLSLE [cdr2 204-212 MLQAQLSLE],5,> 30,5.1,0.235,–,–,–
SQVEELKSS [cdr2 131-139 SQVEELKSS],11,> 30,2.42,0.154,–,–,–
KLVPDSLYV [cdr2 273-281 KLVPDSLYV],3,> 30,6.1,0.499,–,–,–
LGATGAYRA [cdr2 237-245 LGATGAYRA],10,> 30,1.2,0.13,–,–,–
AAAKDLTGV [cdr2 384-392 AAAKDLTGV],3,> 30,6.5,0.469,–,–,–
YKALFKEIF [cdr2 422-430 YKALFKEIF],–,–,–,–,0.357,1.6,1.5
QHAKVYEQL [cdr2 79-87 QHAKVYEQL],–,–,–,–,0.058,0.25,10
LASVNPEPV [cdr2 405-413 LASVNPEPV],4,> 30,1.9,0.244,–,–,–
YDHVFAEKI [cdr2 173-181 YDHVFAEKI],–,–,–,–,0.089,0.75,18

# — patent US20090208538A1 (ROCKEFELLER UNIVERSITY, published 2009)
